Holding throughout (assay): FM-AFM imaging
What all share (conditions): remark: other sources report otherwise

Test [1] deals with T1, annexin A5, P08758.
T1 chain: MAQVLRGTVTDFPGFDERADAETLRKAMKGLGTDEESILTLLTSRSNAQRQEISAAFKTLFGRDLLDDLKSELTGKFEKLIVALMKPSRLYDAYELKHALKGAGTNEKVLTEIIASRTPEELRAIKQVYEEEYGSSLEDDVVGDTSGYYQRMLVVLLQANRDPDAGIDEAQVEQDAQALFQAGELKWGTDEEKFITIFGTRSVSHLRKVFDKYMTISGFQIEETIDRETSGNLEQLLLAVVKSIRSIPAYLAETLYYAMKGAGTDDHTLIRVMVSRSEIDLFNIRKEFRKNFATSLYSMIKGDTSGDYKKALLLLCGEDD

In test [2] the target is T1, annexin A5, P08758.
In test [3] the target is T1, annexin A5, P08758.

As a reminder, the stoichiometry N is a count of units in the complex or per binding partner.

B1: annexin A5, P08758 1-320 (natural protein)
chain: MAQVLRGTVTDFPGFDERADAETLRKAMKGLGTDEESILTLLTSRSNAQRQEISAAFKTLFGRDLLDDLKSELTGKFEKLIVALMKPSRLYDAYELKHALKGAGTNEKVLTEIIASRTPEELRAIKQVYEEEYGSSLEDDVVGDTSGYYQRMLVVLLQANRDPDAGIDEAQVEQDAQALFQAGELKWGTDEEKFITIFGTRSVSHLRKVFDKYMTISGFQIEETIDRETSGNLEQLLLAVVKSIRSIPAYLAETLYYAMKGAGTDDHTLIRVMVSRSEIDLFNIRKEFRKNFATSLYSMIKGDTSGDYKKALLLLCGEDD
Take B1: the percentage of unoccupied hollow sites (vacancies, sites without an H-trimer) in test [1] is 65.9%; in test [2], 56.1%; in test [3] it was 73.6%. Further, the stoichiometry N in test [3] came to 3.

For the origin of these results see publication PMC10368004.
